These results are taken from patent US20210040232A1.

The target of assay [1] is hCTLA-4 extracellular domain (aa 1-161) fused to the trans-membrane and cytoplasmic domain of hCD300a (aa 181-299), on Jurkat/NFAT-Luc cells (human) (UniProt Q9UGN4). Briefly: cell-based or functional assay.
Assay [2] deals with mf CTLA-4 extracellular domain (aa 1-161) fused to the trans-membrane and cytoplasmic domain of hCD300a (aa 181-299), on Jurkat/NFAT-Luc cells (Macaca fascicularis; human) (UniProt G7PL88). Briefly: cell-based or functional assay.
The target in assay [3] is human CTLA-4 (amino acids M1-N223) on stably transfected VI-fibroblast cells (human) (UniProt P16410). Briefly: ECL cell binding, VI-fibroblast/hCTLA-4 cells.
Chain of human CTLA-4 (amino acids M1-N223) on stably transfected VI-fibroblast cells (human) (P16410 36-223 limits assumed): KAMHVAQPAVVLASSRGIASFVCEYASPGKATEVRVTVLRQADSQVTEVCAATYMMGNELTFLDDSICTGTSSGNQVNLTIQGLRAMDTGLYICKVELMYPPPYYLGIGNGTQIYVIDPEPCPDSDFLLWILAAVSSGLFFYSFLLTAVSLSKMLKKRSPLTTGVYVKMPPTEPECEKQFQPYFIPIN

Chain of mf CTLA-4 extracellular domain (aa 1-161) fused to the trans-membrane and cytoplasmic domain of hCD300a (aa 181-299), on Jurkat/NFAT-Luc cells (Macaca fascicularis; human) (Q9UGN4 other isoform, or with tags, fused parts or gaps, form in doubt): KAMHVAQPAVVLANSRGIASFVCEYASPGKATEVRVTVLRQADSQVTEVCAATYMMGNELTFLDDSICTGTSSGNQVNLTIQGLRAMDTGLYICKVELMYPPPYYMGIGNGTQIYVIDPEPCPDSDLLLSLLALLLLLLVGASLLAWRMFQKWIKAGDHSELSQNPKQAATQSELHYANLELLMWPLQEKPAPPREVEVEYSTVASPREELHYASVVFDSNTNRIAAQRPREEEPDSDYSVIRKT
Chain of hCTLA-4 extracellular domain (aa 1-161) fused to the trans-membrane and cytoplasmic domain of hCD300a (aa 181-299), on Jurkat/NFAT-Luc cells (human) (Q9UGN4 other isoform, or with tags, fused parts or gaps limits assumed, form in doubt): as the sequence (Q9UGN4 other isoform, or with tags, fused parts or gaps, form in doubt) above, with N14S, M106L counted along it

The substance hIgG1 Isotype Control (antibody) had a Fold induction of IL-2 at 100 nM, APC HEK293/hCD20/hCD80 (isotype control) in assay [1] of 0.8 fold. For the same substance, in assay [2], the Fold induction of IL-2 at 100 nM, APC HEK293/hCD20/hCD86 (isotype control) was 1.1 fold. For the same substance, in assay [3], the ratio of RLU signal to parental VI-fibroblast at 0.4 nM Ab was determined as 1.

Turning to hIgG2 Isotype (antibody), in assay [1], the Fold induction of IL-2 at 100 nM, APC HEK293/hCD20/hCD80 (isotype control) was 1 fold. The substance also returned a Fold induction of IL-2 at 100 nM, APC HEK293/hCD20/hCD86 (isotype control) in assay [2] of 1 fold.

For mIgG2 Isotype Control (antibody), in assay [3], the ratio of RLU signal to parental VI-fibroblast at 0.6 nM Ab came to 1.
